Experiment [1] addresses hCMP-mRBD from a stable CHO suspension cell line (human | HIV-1 JR-FL | SARS-CoV-2) (UniProt P0DTC2). In words: SDS-PAGE.
Experiment [2] deals with hCMP-mRBD from a stable HEK293 suspension cell line (human | HIV-1 JR-FL | SARS-CoV-2) (UniProt P0DTC2). Nature of the experiment: SDS-PAGE.

What is called stoichiometry N is a count of units in the complex or per binding partner.

In experiment [1], “hCMP-mRBD from a stable CHO suspension cell line (from UniProt P0DTC2 332-532)” registered a stoichiometry N of 3. “hCMP-mRBD from a stable HEK293 suspension cell line (from UniProt P0DTC2 332-532)” registered a stoichiometry N in experiment [2] of 3.
